Test results as given in article PMC6526949 (Biochemistry, 2018).

Molecular target: the molecule itself
Experiment: SEC

B1: Escherichia coli O-acetylserine sulfhydrylase isoenzyme B (CysM) (enzyme, UniProt P16703 1-303, looked up)
chain: MSTLEQTIGNTPLVKLQRMGPDNGSEVWLKLEGNNPAGSVKDRAALSMIVEAEKRGEIKPGDVLIEATSGNTGIALAMIAALKGYRMKLLMPDNMSQERRAAMRAYGAELILVTKEQGMEGARDLALEMANRGEGKLLDQFNNPDNPYAHYTTTGPEIWQQTGGRITHFVSSMGTTGTITGVSRFMREQSKPVTIVGLQPEEGSSIPGIRRWPTEYLPGIFNASLVDEVLDIHQRDAENTMRELAVREGIFCGVSSGGAVAGALRVAKANPDAVVVAIICDRGDRYLSTGVFGEEHFSQGAGI
modifications: PLP cofactor ligated through a Schiff base to the ε-amino group of Lysine-41 (PLP:CysM ratio approximately 0.57:1)
stoichiometry N: 2
